Measured values from patent US20160289290A1, “N-GLYCOSYLATED INSULIN ANALOGUES” (Merck Sharp & Dohme Corp., priority 2011, published 2016).
“Also recorded” adds a separate entry of the source. Like-named read-outs stand apart in the source and are kept apart here.

Columns and labels:
[1] = Glucose responsiveness in C57BL/6 mice with or without α-methylmannose; format: in vivo
Method: FIG. 40A, FIG. 40B, FIG. 40C, and FIG. 40D show in vivo activity of insulin B:P28N des(B30) analogues with an N-glycan attached to position B28. C57BL/6 mice at 12 weeks of age were fasted two hours before dosed with insulin des(B30) analogues with GS2.1 or GS5.0 N-glycan compositions by s.c injection. The effect on blood glucose was determined as a function of time in the absence and presence of α-methylmannose. FIG. 40A: vehicle; FIG. 40B: GS5.0; FIG. 40C: GS2.1; and FIG. 40D: summarizes the results.
To study the glucose responsiveness of the GS2.1 and GS5.0 insulin analogues, C57BL/6 mice at 12 weeks of age were fasted two hours before dosed with GS2.1 or GS5.0 by s.c injection. At the same time, animals received i.p. administration of α-methylmannose solution (21.5% w/v in saline, 10 ml/kg) or vehicle. […] Blood glucose was measured using a glucometer (OneTouch Ultra LifeScan; Milpitas, Calif.) at time 0 and then 30, 60, 90, and 120 minutes post injection. Glucose Area-Over-the-Curve (AOC) was calculated using values normalized to glucose of time 0 (as 100%).

[2] = Glucose levels during mouse ITT; format: in vivo
[3] = mouse, in vivo
IGF-1R = IGF-1R (Homo sapiens, UniProt P08069); assay: IGF-1 receptor binding (FIG. 5B)
Source text: (§1) FIG. 5A, FIG. 5B, FIG. 5C, and FIG. 5D show[s] in vitro activities of the two N-glycosylated insulin analogues at the insulin and insulin-like growth factor (IGF-1) receptors.
Published studies have shown insulin to have a reduced interaction with IGF-1R when it contains a net negative charge at the end of the B-chain (Slieker et al., op. cit.). Therefore, we hypothesized that an N-glycosylated insulin analogue having sialic acid terminated-N-glycans would have reduced IGF-1R binding.

insulin receptor (IR) [4] = target: T1, insulin receptor (IR) (Homo sapiens, UniProt P06213); assay: In vitro insulin receptor phosphorylation / IR signaling assay (FIG. 5C); format: cell-based
Source text: as §1
(§2) N-glycans provide a means for modulating IR binding. […] The sialylated N-glycans extended the PK of the insulin relative to insulin analogues having non-sialylated N-glycans. However, the extended PK is balanced by the reduced binding at the IR. […] In light of the examples shown herein, modulating insulin-IR interactions can be accomplished by providing glycosylated insulin analogues in which one or more N-glycans have been added to the molecule by N-linked glycosylation in vivo or by attaching one or more of the N-glycans to the insulin molecule in vitro or a combination of both.

insulin receptor (IR) [5] = target: T1, insulin receptor (IR); assay: In vitro insulin receptor binding (FIG. 5A)
Source text: as §1, §2

[6] = Circulating insulin analogue levels during insulin tolerance test (ITT); settings: FIG. 3A/3B

Substance: GS5.0: insulin heterodimer, native A-chain, des(B30) B:P28N B-chain, Asn28 attached to a G2 N-glycan (SEQ ID NO:295)
- Percent glucose AOC in the presence and absence of α-methylmannose ([1]; AOC normalized to glucose at time 0): no change was detected
- Blood glucose lowering, dosed alone ([1]; s.c., i.p. vehicle, 0-120 min, GS5.0 at 18 nmol/kg): lowered glucose during 120 min study period
- Blood glucose lowering in the presence of α-methylmannose ([1]; s.c., i.p. α-methylmannose 21.5% w/v, 10 ml/kg): no detectable additional effect on glucose lowering
- In vivo glucose-lowering activity ([2]; FIG. 4): retained activity at the insulin receptor
- AUC of circulating insulin analogue levels [3]: statistically significant improvements in AUC relative to mature NOVOLIN

Substance: GS6.0: insulin heterodimer, native A-chain, des(B30) B:P28N B-chain, Asn28 attached to an A2 N-glycan (SEQ ID NO:294)
- IGF-1R binding affinity (IGF-1R): interacts with IGF-1R with even less affinity than NOVOLIN
- In vitro IR signaling activity (insulin receptor (IR) [4]): reduced activity
- In vitro IR binding (insulin receptor (IR) [5]): reduced binding activity to IR
- AUC of circulating insulin analogue levels [6]: statistically significant improvements in AUC relative to mature NOVOLIN
- AUC of circulating insulin analogue levels ([6]; listed as sialic acid-terminated glycoform): even greater AUC measurements relative to the galactose-terminated glycoform
- In vivo glucose-lowering activity ([2]; FIG. 4, listed as sialic acid-terminated glycoform): retained activity at the insulin receptor; also recorded: longest glucose-lowering activity of all des(B30) samples
